Where no end group is shown, it is not given here.
Columns and labels:
Assay in all cases: ELISA; competition ELISA as described in ref. 20: synthetic peptide in solution blocks PDZ domain binding to immobilized peptide; IC50 = peptide concentration that blocked 50% of binding; no detectable interaction = IC50 > 500 μM
Details in all cases: both partners purified
SCRIB PDZ domain 1 = molecular target: T1, SCRIB PDZ domain 1 (human, UniProt Q14160 728-815)
T1 construct: also called SCRIB-1

SCRIB PDZ domain 3 = molecular target: T2, SCRIB PDZ domain 3 (human, UniProt Q14160 1004-1093)
T2 construct: also called SCRIB-3
T2 sequence (looked up): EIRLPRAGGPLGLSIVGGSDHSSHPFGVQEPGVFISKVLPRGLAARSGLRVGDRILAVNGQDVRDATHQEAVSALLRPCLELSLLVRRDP

SCRIB PDZ domain 2 = molecular target: T3, SCRIB PDZ domain 2 (human, UniProt Q14160 862-950)
T3 construct: also called SCRIB-2
T3 sequence (looked up): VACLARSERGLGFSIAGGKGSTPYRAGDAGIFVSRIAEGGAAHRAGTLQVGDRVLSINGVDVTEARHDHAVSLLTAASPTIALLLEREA

Measured: IC50

T1 sequence (Q14160 728-815): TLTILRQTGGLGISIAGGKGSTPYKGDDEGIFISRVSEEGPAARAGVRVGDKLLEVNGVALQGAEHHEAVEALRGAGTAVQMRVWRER

RQIKIWFQNRRMKWKKRSWFEAWA (not fully specified (C-terminus)) [designed nonbinding peptide Π–RSWFEAWA (peptide 15)]
> 500 µM: all assays above
